The record followed here is the supplement of paper PMC10567573.

Sequences and labels used below:
B1: TPD52L1 (parent)
chain: ISKKFGDMSYSIRHSISMPAMRNS
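Also: lentivirally expressed fusions sorted by FACS into six bins by GFP to DsRed ratio, PSI derived from sequencing read proportions per bin multiplied by bin number.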

The variants in this data set derive from B1. The data set is described as follows: protein stability index of a GFP-peptide fusion (GPS, HEK-293T) (PSI 1-6); higher = more stable. The following applies: c terminus: a fixed tail appended.
As for ISKKFGDMSYSIRHSGSMPAMRNS [I16G], the protein stability index turned out to be 2.51.
Next, ISKKFGDMSYSIRHSISMPAMRIS [N23I]: 1.77; ISKKFGDMSYSIRHSISMPAMRSS [N23S]: 2.26.
On to ISKKFGDMSYSIRHSISMPAMRWS [N23W], for which the protein stability index turned out to be 2.39.
Next, ISKKFGDMSYSIRHSISMPAMRES [N23E]: 2.28; ISKKFGDMSYSIRHSISMPAMRVS [N23V]: 1.84.
In the case of ISKKFGDMSYSIRHSISMPAMRRS [N23R] it was 2.14; in that of ISKKFGDMSYSIRHSISMPAMRYS [N23Y], 1.51.
Next, ISKKFGDMSYSIRHSISMPAMRLS [N23L]: 1.98; ISKKFGDMSYSIRHSISMPAMRKS [N23K]: 2.48.
As to ISKKFGDMSYSIRHSISMPAMRCS [N23C], the protein stability index was 1.91.
In the case of ISKKFGDMSYSIRHSISMPAMRFS [N23F] it was 1.84; in that of ISKKFGDMSYSIRHSISMPAMRPS [N23P], 2.46.
In the case of ISKKFGDMSYSIRHSISMPAMRTS [N23T] it was 2.31; in that of ISKKFGDMSYSIRHSISMPAMRHS [N23H], 2.19; in that of ISKKFGDMSYSIRHSISMPAMRQS [N23Q], 2.29.
With ISKKFGDMSYSIRHSISMPAMRGS [N23G], the protein stability index was 2.42.
Regarding ISKKFGDMSYSIRHSISMPAMRAS [N23A], the protein stability index amounted to 1.86.
Next, ISKKFGDMSYSIRHSISMPAMRDS [N23D]: 2.32; ISKKFGDMSYSIRHSISMPAMRMS [N23M]: 2.05; ISKKFGDMSYSIRHSISMPAMINS [R22I]: 1.85.
In the case of ISKKFGDMSYSIRHSISMPAMQNS [R22Q] it was 2.3; in that of ISKKFGDMSYSIRHSISMPAMGNS [R22G], 2.66.
Next, ISKKFGDMSYSIRHSISMPAMFNS [R22F]: 2.22; ISKKFGDMSYSIRHSISMPAMDNS [R22D]: 2.52.
On to ISKKFGDMSYSIRHSISMPAMSNS [R22S], for which the protein stability index is 2.13.
In the case of ISKKFGDMSYSIRHSISMPAMVNS [R22V] it was 1.8.
Next, ISKKFGDMSYSIRHSISMPAMLNS [R22L]: 1.82; ISKKFGDMSYSIRHSISMPAMNNS [R22N]: 2.79.
In the case of ISKKFGDMSYSIRHSISMPAMYNS [R22Y] it was 1.88; in that of ISKKFGDMSYSIRHSISMPAMENS [R22E], 2.18.
In the case of ISKKFGDMSYSIRHSISMPAMANS [R22A], the protein stability index was 2.23.
In the case of ISKKFGDMSYSIRHSISMPAMKNS [R22K] it was 2.75; in that of ISKKFGDMSYSIRHSISMPAMPNS [R22P], 2.34; in that of ISKKFGDMSYSIRHSISMPAMTNS [R22T], 2.6.
Next, ISKKFGDMSYSIRHSISMPAMMNS [R22M]: 2.25; ISKKFGDMSYSIRHSISMPAMHNS [R22H]: 2.56.
In the case of ISKKFGDMSYSIRHSISMPAMCNS [R22C] it was 1.97.
Turning to ISKKFGDMSYSIRHSISMPAMWNS [R22W], the protein stability index is 1.65.
With ISKKFGDMSYSIRHSISMCAMRNS [P19C], the protein stability index turned out to be 1.76.
Regarding ISKKFGDMSYSIRHSISMFAMRNS [P19F], the protein stability index turned out to be 1.87.
Next, ISKKFGDMSYSIRHSISMLAMRNS [P19L]: 2.35; ISKKFGDMSYSIRHSISMRAMRNS [P19R]: 1.9; ISKKFGDMSYSIRHSISMKAMRNS [P19K]: 1.83.
Consider ISKKFGDMSYSIRHSISMTAMRNS [P19T], for which the protein stability index stood at 2.17.
In the case of ISKKFGDMSYSIRHSISMYAMRNS [P19Y] it was 1.7.
In the case of ISKKFGDMSYSIRHSISMNAMRNS [P19N] it was 2.04; in that of ISKKFGDMSYSIRHSISMSAMRNS [P19S], 1.97.
Next, ISKKFGDMSYSIRHSISMGAMRNS [P19G]: 2.6.
In the case of ISKKFGDMSYSIRHSISMIAMRNS [P19I], the protein stability index was determined as 2.6.
Next, ISKKFGDMSYSIRHSISMQAMRNS [P19Q]: 2.33; ISKKFGDMSYSIRHSISMEAMRNS [P19E]: 2.47; ISKKFGDMSYSIRHSISMDAMRNS [P19D]: 2.2.
As to ISKKFGDMSYSIRHSISMMAMRNS [P19M], the protein stability index turned out to be 2.58.
Next, ISKKFGDMSYSIRHSISMVAMRNS [P19V]: 1.87; ISKKFGDMSYSIRHSISMWAMRNS [P19W]: 1.71.
Next, ISKKFGDMSYSIRHSISMHAMRNS [P19H]: 2.01; ISKKFGDMSYSIRHSISMAAMRNS [P19A]: 1.98.
On to ISKKFGDMSYSIRHSISMPASRNS [M21S], for which the protein stability index was determined as 2.46.
Next, ISKKFGDMSYSIRHSISMPADRNS [M21D]: 2.75; ISKKFGDMSYSIRHSISMPAFRNS [M21F]: 2.31; ISKKFGDMSYSIRHSISMPARRNS [M21R]: 2.57.
In the case of ISKKFGDMSYSIRHSISMPAVRNS [M21V] it was 2.53; in that of ISKKFGDMSYSIRHSISMPAARNS [M21A], 2.82.
Next, ISKKFGDMSYSIRHSISMPAYRNS [M21Y]: 2.46; ISKKFGDMSYSIRHSISMPAQRNS [M21Q]: 2.33.
ISKKFGDMSYSIRHSISMPALRNS [M21L]: the protein stability index came to 2.27.
Regarding ISKKFGDMSYSIRHSISMPACRNS [M21C], the protein stability index was found to be 3.31.
In the case of ISKKFGDMSYSIRHSISMPAKRNS [M21K] it was 3.21; in that of ISKKFGDMSYSIRHSISMPAPRNS [M21P], 2.54.
In the case of ISKKFGDMSYSIRHSISMPATRNS [M21T] it was 2.49; in that of ISKKFGDMSYSIRHSISMPAIRNS [M21I], 2.39; in that of ISKKFGDMSYSIRHSISMPAWRNS [M21W], 2.79.
Next, ISKKFGDMSYSIRHSISMPANRNS [M21N]: 2.68; ISKKFGDMSYSIRHSISMPAERNS [M21E]: 3.36; ISKKFGDMSYSIRHSISMPAHRNS [M21H]: 2.46.
On to ISKKFGDMSYSIRHSISMPAGRNS [M21G], for which the protein stability index is 2.4.
Next, ISKKFGDMSYSIRHQISMPAMRNS [S15Q]: 2.5.
In the case of ISKKFGDMSYSIRHTISMPAMRNS [S15T] it was 1.88; in that of ISKKFGDMSYSIRHMISMPAMRNS [S15M], 1.91; in that of ISKKFGDMSYSIRHYISMPAMRNS [S15Y], 1.51.
Next, ISKKFGDMSYSIRHHISMPAMRNS [S15H]: 1.85.
Turning to ISKKFGDMSYSIRHEISMPAMRNS [S15E], the protein stability index stood at 3.28.
In the case of ISKKFGDMSYSIRHNISMPAMRNS [S15N] it was 2.37; in that of ISKKFGDMSYSIRHKISMPAMRNS [S15K], 2.31.
Next, ISKKFGDMSYSIRHFISMPAMRNS [S15F]: 1.42; ISKKFGDMSYSIRHRISMPAMRNS [S15R]: 2.24; ISKKFGDMSYSIRHIISMPAMRNS [S15I]: 1.87.
Turning to ISKKFGDMSYSIRHGISMPAMRNS [S15G], the protein stability index was found to be 2.38.
In the case of ISKKFGDMSYSIRHWISMPAMRNS [S15W] it was 2.22; in that of ISKKFGDMSYSIRHVISMPAMRNS [S15V], 1.32.
In the case of ISKKFGDMSYSIRHPISMPAMRNS [S15P] it was 2.43; in that of ISKKFGDMSYSIRHLISMPAMRNS [S15L], 1.83; in that of ISKKFGDMSYSIRHDISMPAMRNS [S15D], 1.92.
